According to patent US20090180995A1, “NOVEL ANTICOAGULANT POLYPEPTIDES AND COMPLEX” (National University of Singapore, priority 2005, published 2009):

Tests used:
FVIIa = molecular target: T1, FVIIa (Homo sapiens, UniProt P08709); experiment: ITC, binding of hemextin AB complex to FVIIa; settings: 37° C.
T1 construct: from tissue; host or cells: human plasma
T1 sequence (P08709 61-212 limits assumed): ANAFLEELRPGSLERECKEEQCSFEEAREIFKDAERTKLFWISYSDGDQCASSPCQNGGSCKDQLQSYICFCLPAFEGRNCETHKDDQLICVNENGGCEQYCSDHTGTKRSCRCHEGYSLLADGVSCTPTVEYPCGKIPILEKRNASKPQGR
T1 sequence (P08709 213-466 limits assumed): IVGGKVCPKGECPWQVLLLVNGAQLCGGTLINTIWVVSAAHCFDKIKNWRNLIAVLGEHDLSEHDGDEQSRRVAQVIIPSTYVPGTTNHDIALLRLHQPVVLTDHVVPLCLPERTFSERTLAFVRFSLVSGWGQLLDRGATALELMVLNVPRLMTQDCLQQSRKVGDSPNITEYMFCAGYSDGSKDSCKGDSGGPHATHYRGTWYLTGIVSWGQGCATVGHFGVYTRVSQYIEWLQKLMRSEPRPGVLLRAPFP
Experimental: Isothermal titration calorimetry (ITC) studies—The interaction of anticoagulant hemextin AB complex with FVIIa was monitored with a VP-ITC titration calorimetric system (Microcal Inc., Northampton, Mass.). The instrument was calibrated using the built-in electrical calibration check. FVIIa (10 μM) in 50 mM Tris-HCl buffer and 10 mM CaCl2 (pH 7.4) in the calorimetric cell was titrated with reconstituted anticoagulant complex (0.2 mM) dissolved in the same buffer in a 250 μl injection syringe, with continual stirring at 300 rpm at 37° C. All the protein solutions were filtered and degassed prior to titration. […] The total heat content Q of the solution (determined relative to zero for the unliganded species) contained in the active cell volume, Vo, was calculated according to the following Equation 2, where K is the binding affinity constant, n is the number of sites, ΔH is the enthalpy of ligand binding, Mt and Xt is the bulk concentration of macromolecule and ligand, respectively, for the binding X+M ? […]
The change in heat (ΔQ) measured between the completions of two consecutive injections is corrected for dilution of the protein and ligand in the cell according to standard Marquardt methods. The free energy change (AG) during the interaction was calculated by using the relationship: ΔG=ΔH−TΔS=[…], where T is the absolute temperature and R is the universal gas constant.

[1] = test system: hemextin A-hemextin B interaction; experiment: ITC, hemextin A-hemextin B interaction; format: binding, Hemachatus haemachatus
[2] = Size exclusion chromatography of hemextin AB complex in different buffers; format: physicochemical
Experimental: Size exclusion chromatography (SEC) studies—All SEC experiments were carried out at room temperature on a pre-packed Superdex 75 gel filtration column (1.6×60 cm) using a ÄKTA Purifier system (Amersham Biosciences, Uppsala, Sweden). The column was eluted with 50 mM Tris-HCl buffer (pH 7.4) or the specified elution buffer, at a flow rate of 1 ml/min. The sample volume applied to the column was 4 ml. The column was calibrated using ovomucoid (28 kD) ribonuclease (15.6 KD), cytochrome C (12 KD), apoprotinin (7 KD) and pelovaterin (4 KD) (20) as molecular weight markers. The void volume was determined by running Blue Dextran. The column was equilibrated with at least two bed volumes of the elution buffer prior to each run. Electrostatic contributions in the hemextin AB complex formation were studied by monitoring its elution in 50 mM Tris-HCl buffer (pH 7.4) of different concentrations of NaCl (75 mM and 150 mM). Hydrophobic contributions for the complex formation were determined by recording its elution in 50 mM Tris-HCl buffer (pH 7.4). In both studies, the column was first equilibrated with the desired buffer prior to the application of the reconstituted hemextin AB complex in the respective buffer to the column. Elution of protein was monitored by absorbance at 280 nm.

B1: hemextin AB complex: synergistic 1:1 tetrameric complex of hemextin A and hemextin B, reconstituted from equimolar proteins (protein)
chain 1: LKCKNKLVPFLSKTCPEGKNLCYKMTMLKMPKIPIKRGCTDACPKSSLLVKVVCCNKDKCN
chain 2: LKCKNKVVPFLKCKNKVVPFLCYKMTLKKVPKIPIKRGCTDACPKSSLLVNVMCCKTDKCN
ΔG of binding to FVIIa (FVIIa): -7.543 kcal/M
K for the binding to FVIIa (FVIIa; 50 mM Tris-HCl, 10 mM CaCl2 (pH 7.4)): 411000 M⁻¹
Ka ([1]; 10 ° C., 50 mM Tris (pH 7.4)): 640000 M⁻¹
Ka ([1]; 25 ° C., 50 mM Tris (pH 7.4)): 2.07e+06 M⁻¹
Ka ([1]; 37 ° C., 50 mM Tris (pH 7.4)): 2.23e+06 M⁻¹
Ka ([1]; 37 ° C., 50 mM Tris (pH 7.4) + 35 mM NaCl): 630000 M⁻¹
Ka ([1]; 37 ° C., 50 mM Tris (pH 7.4) + 75 mM NaCl): 330000 M⁻¹
Ka ([1]; 37 ° C., 50 mM Tris (pH 7.4) + 100 mM NaCl): 20000 M⁻¹
Ka ([1]; 37 ° C., 50 mM Tris (pH 7.4) + 125 mM glycerol): 320000 M⁻¹
Ka ([1]; 37 ° C., 50 mM Tris (pH 7.4) + 150 mM NaCl): 2000 M⁻¹
Ka ([1]; 37 ° C., 50 mM Tris (pH 7.4) + 175 mM glycerol): 200000 M⁻¹
Ka ([1]; 37 ° C., 50 mM Tris (pH 7.4) + 250 mM glycerol): 50000 M⁻¹
Ka ([1]; 45 ° C., 50 mM Tris (pH 7.4)): 1.97e+06 M⁻¹
binding constant (Ka), hemextin AB complex formation ([1]; ITC): 2.23e+06 M⁻¹
SEC elution of the complex, 75 mM NaCl ([2]; 50 mM Tris-HCl (pH 7.4), 75 mM NaCl): the tetramer starts breaking down to dimer
SEC elution of the complex, 150 mM NaCl ([2]; 50 mM Tris-HCl (pH 7.4), NaCl 150 mM): eluted mostly as a dimer and monomer
SEC elution of the complex, high glycerol concentration ([2]; Superdex 75, buffers containing glycerol): the tetramer breaks down to dimer and monomers
